Experimental data: article PMC7494997

molecular target: SG7; test: flow cytometry on yeast-displayed VISTA; settings: chain shown with the change; 4 nM SG7; parent: est. 100; read off a plot
Sequence (chain, as listed by the source, chain 1 of 2): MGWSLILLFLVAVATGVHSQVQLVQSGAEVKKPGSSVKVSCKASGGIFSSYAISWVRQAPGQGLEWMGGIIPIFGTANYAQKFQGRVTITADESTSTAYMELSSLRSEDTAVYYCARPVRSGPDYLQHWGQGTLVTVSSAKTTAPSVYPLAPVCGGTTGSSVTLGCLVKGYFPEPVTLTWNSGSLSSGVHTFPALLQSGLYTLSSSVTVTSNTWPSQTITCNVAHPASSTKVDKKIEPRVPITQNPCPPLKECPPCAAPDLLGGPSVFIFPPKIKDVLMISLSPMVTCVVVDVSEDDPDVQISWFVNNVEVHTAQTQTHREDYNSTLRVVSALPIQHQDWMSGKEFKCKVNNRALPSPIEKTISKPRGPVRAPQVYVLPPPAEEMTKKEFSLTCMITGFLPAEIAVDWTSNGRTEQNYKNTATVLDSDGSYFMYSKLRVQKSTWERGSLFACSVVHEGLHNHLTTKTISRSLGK
Sequence (chain, as listed by the source, chain 2 of 2): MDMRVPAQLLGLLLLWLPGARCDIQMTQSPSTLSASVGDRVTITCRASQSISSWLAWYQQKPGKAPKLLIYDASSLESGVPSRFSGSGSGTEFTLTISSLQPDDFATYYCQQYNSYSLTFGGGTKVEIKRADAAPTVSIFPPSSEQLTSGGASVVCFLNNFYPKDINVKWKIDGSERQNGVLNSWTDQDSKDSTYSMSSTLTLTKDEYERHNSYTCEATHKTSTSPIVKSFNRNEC

Row | Binder | percent of parent [% WT]
1 | yeast-displayed mVISTA E124A (protein) FKVTTPYSLYVCPEGQNATLTCRILGPVSKGHDVTIYKTWYLSSRGEVQMCKEHRPIRNFTLQHLQHHGSHLKANASHDQPQKHGLELASDHHGNFSITLRNVTPRDSGLYCCLVIELKNHHPAQRFYGSMELQVQAGKGSGSTCMASNEQDSDSITAA | 9
2 | yeast-displayed mVISTA H121A (protein) FKVTTPYSLYVCPEGQNATLTCRILGPVSKGHDVTIYKTWYLSSRGEVQMCKEHRPIRNFTLQHLQHHGSHLKANASHDQPQKHGLELASDHHGNFSITLRNVTPRDSGLYCCLVIELKNAHPEQRFYGSMELQVQAGKGSGSTCMASNEQDSDSITAA | 1

Second part, the binder after the results:

Row | percent of parent [% WT] | Binder
3 | 13 | yeast-displayed mVISTA I36A (protein) FKVTTPYSLYVCPEGQNATLTCRILGPVSKGHDVTAYKTWYLSSRGEVQMCKEHRPIRNFTLQHLQHHGSHLKANASHDQPQKHGLELASDHHGNFSITLRNVTPRDSGLYCCLVIELKNHHPEQRFYGSMELQVQAGKGSGSTCMASNEQDSDSITAA
4 | 63 | yeast-displayed mVISTA K38A (protein) FKVTTPYSLYVCPEGQNATLTCRILGPVSKGHDVTIYATWYLSSRGEVQMCKEHRPIRNFTLQHLQHHGSHLKANASHDQPQKHGLELASDHHGNFSITLRNVTPRDSGLYCCLVIELKNHHPEQRFYGSMELQVQAGKGSGSTCMASNEQDSDSITAA
